Measurements published in article PMC11852578, “Enhanced Site-Specific Fluorescent Labeling of Membrane Proteins Using Native Nanodiscs” (Biomolecules, 2025).
Where a chain is given by its changes, count along the chain named. Numbers in names are those of the source.

B1: KvAP wild type, archaeal voltage-gated potassium channel from Aeropyrum pernix, in DM detergent micelles (natural protein)
chain: GGRVRNIGDVMEHPLVELGVSYAALLSVIVVVVEYTMQLSGEYLVRLYLVDLILVIILWADYAYRAYKSGDPAGYVKKTLYEIPALVPAGLLALIEGHLAGLGLFRLVRLLRFLRILLIISRGSKFLSAIADAADKIRFYHLFGAVMLTVLYGAFAIYIVEYPDPNSSIKSVFDALWWAVVTATTVGYGDVVPATPIGKVIGIAVMLTGISALTLLIGTVSNMFQKILVGEPEPSCSPAKLAEMVSSMSEEEFEEFVRTLKNLRRLENSMK
notes: voltage-gated potassium channel KvAP, Aeropyrum pernix; native cysteine printed as C260; Labelling with AF647 maleimide failed in detergent, so the protein was unlabelled; also called wild-type KvAP; source: E. coli C43, pET21a-derived vector, membranes solubilised in DM, purified (Ni-NTA, SEC)
B2: KvAP K102C single-cysteine mutant labelled with AF647 maleimide, in Glyco-DIBMA native nanodiscs (natural protein, Aeropyrum pernix)
chain: B1 chain with K78C, C236A
modifications: Alexa Fluor 647 maleimide on the introduced cysteine K102C
notes: voltage-gated potassium channel KvAP, Aeropyrum pernix; native cysteine mutated to alanine and cysteine introduced at K102; Same construct as m3, but labelled and in a nanodisc; also called mutant K102C; source: E. coli C43, membranes extracted with Glyco-DIBMA, purified (Ni-NTA with on-column labelling, SEC)
B3: KvAP E275C single-cysteine mutant, in DM detergent micelles (natural protein, Aeropyrum pernix)
chain: B1 chain with C236A, E251C
notes: voltage-gated potassium channel KvAP, Aeropyrum pernix; native cysteine mutated to alanine and cysteine introduced at E275; Labelling failed in detergent, so the protein was unlabelled; source: E. coli C43, pET21a-derived vector, membranes solubilised in DM, purified (Ni-NTA, SEC)
B4: KvAP wild type labelled with AF647 maleimide, in Glyco-DIBMA native nanodiscs (natural protein, Aeropyrum pernix)
chain: B1 chain
modifications: Alexa Fluor 647 maleimide on the native cysteine C260
notes: voltage-gated potassium channel KvAP, Aeropyrum pernix; native cysteine printed as C260; Same construct as m1, but labelled and in a polymer-encapsulated lipid nanodisc; also called wild-type KvAP; nanodisc-purified wild-type KvAP; source: E. coli C43, membranes extracted with Glyco-DIBMA, purified (Ni-NTA with on-column labelling, SEC)
B5: KvAP K102C single-cysteine mutant, in DM detergent micelles (natural protein, Aeropyrum pernix)
chain: B1 chain with K78C, C236A
notes: voltage-gated potassium channel KvAP, Aeropyrum pernix; native cysteine mutated to alanine and cysteine introduced at K102; Labelling failed in detergent, so the protein was unlabelled; source: E. coli C43, pET21a-derived vector, membranes solubilised in DM, purified (Ni-NTA, SEC)
B6: KvAP E275C single-cysteine mutant labelled with AF647 maleimide, in Glyco-DIBMA native nanodiscs (natural protein, Aeropyrum pernix)
chain: B1 chain with C236A, E251C
modifications: Alexa Fluor 647 maleimide on the introduced cysteine E275C
notes: voltage-gated potassium channel KvAP, Aeropyrum pernix; native cysteine mutated to alanine and cysteine introduced at E275; Same construct as m4, but labelled and in a nanodisc; also called mutant E275C; source: E. coli C43, membranes extracted with Glyco-DIBMA, purified (Ni-NTA with on-column labelling, SEC)
B7: HpUreI L134C single-cysteine mutant, Helicobacter pylori proton-gated urea channel, in detergent (DDM or LDAO) (natural protein)
chain: MLGLVLLYVGIVLISNGICGLTKVDPKSTAVMNFFVGGLSIICNIVVITYSALHPTAPVEGAEDIAQVSHHLTSFYGPATGLLFGFTYLYAAINHTFGLDWRPYSWYSLFVAINTIPAAILSHYSDMLDDHKVCGITEGDWWAIIWLAWGVLWLTAFIENILKIPLGKFTPWLAIIEGILTAWIPAWLLFIQHWV
notes: urea channel HpUreI, Helicobacter pylori; The hexamer remained unlabelled in detergent; with TCEP only aggregated and non-hexameric oligomers were labelled; also called detergent-solubilized HpUreI; source: E. coli C43, membranes solubilised in DDM or LDAO, purified (cobalt beads, HRV 3C cleavage, SEC)
B8: HpUreI L134C single-cysteine mutant labelled with AF647 maleimide, in Glyco-DIBMA native nanodiscs (natural protein)
chain: B7 chain
modifications: Alexa Fluor 647 maleimide on the introduced cysteine L134C
notes: urea channel HpUreI, Helicobacter pylori; Same construct as m7, but labelled and in a nanodisc; no removal of the His tag is told for the nanodisc preparation; also called nanodisc-embedded HpUreI; source: E. coli C43, membranes extracted with Glyco-DIBMA, purified (Ni-NTA with on-column labelling, SEC)

Legend:
[1] = biological target: the molecule itself; test: SEC; KvAP in 0.25% (w/v) DM micelles; Superdex 200 Increase 10/300; SEC buffer 100 mM KCl, 25 mM Tris, pH 8; size estimated against gel filtration standards
[2] = biological target: the molecule itself; test: fluorescence correlation spectroscopy (molecular brightness); SEC-purified, AF647-labelled protein in Glyco-DIBMA nanodiscs; brightness compared with free AF647 maleimide dye at the same laser power, assuming labelling of all monomers
[3] = biological target: the molecule itself; test: SEC; KvAP in Glyco-DIBMA native nanodiscs, labelled with AF647 maleimide; standard buffer 150 mM KCl, 50 mM Tris, pH 7.4; UV and fluorescence detection
[4] = biological target: the molecule itself; test: SDS-PAGE; HpUreI L134C purified in LDAO instead of DDM
[5] = biological target: the molecule itself; test: SEC; HpUreI L134C in Glyco-DIBMA native nanodiscs, labelled with AF647 maleimide; standard buffer 150 mM NaCl, 50 mM Tris, pH 7.4

Protein | stoichiometry N [1] | stoichiometry N [2] | also measured
B1 | 4 | – | –
B2 | – | ~4 | –
B3 | 4 | – | –
B4 | – | ~4 | stoichiometry N [3]: 4
B5 | 4 | – | –
B6 | – | ~4 | –
B7 | – | – | stoichiometry N [4]: 6
B8 | – | ~6 | stoichiometry N [5]: 6
